The assay concerns the target human E-cadherin on human embryonic stem cells (hESCs; CyT203) (human) (UniProt P12830). The experiment in a line: cell-based or functional assay.

The values below come from patent US20090093372A1.

UniProt P12830, sequence (P12830 155-882 limits assumed): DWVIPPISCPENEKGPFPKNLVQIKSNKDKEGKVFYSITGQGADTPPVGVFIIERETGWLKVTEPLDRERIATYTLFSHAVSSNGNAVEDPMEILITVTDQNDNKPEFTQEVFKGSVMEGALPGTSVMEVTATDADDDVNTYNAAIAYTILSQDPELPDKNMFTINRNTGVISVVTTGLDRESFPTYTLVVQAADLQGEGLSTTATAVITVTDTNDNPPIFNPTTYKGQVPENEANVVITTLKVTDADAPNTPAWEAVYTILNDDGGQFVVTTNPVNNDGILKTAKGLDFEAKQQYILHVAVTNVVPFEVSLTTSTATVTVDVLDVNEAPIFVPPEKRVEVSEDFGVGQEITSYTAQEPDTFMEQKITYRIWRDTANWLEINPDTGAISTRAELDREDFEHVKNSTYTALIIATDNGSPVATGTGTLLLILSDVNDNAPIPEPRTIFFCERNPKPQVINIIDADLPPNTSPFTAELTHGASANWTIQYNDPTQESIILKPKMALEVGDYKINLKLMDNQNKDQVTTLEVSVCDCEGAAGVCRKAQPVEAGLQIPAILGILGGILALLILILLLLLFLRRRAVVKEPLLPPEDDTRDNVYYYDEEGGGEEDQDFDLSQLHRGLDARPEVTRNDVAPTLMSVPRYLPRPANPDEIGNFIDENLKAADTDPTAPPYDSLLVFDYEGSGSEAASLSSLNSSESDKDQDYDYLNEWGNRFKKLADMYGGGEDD

In turn, “mouse anti-human E-cadherin antibody (Zymed Cat. No. 13-1700)” came in with a percentage of CXCR4 positive cells (flow cytometry after 3 days of differentiation to definitive endoderm; antibody at 5 µg/mL on day 1) of 93%.
